# Results as given in paper PMC9340783, “Development of a fully human anti‐GITR antibody with potent antitumor activity using H2L2 mice” (FEBS Open Bio, 2022).
# T1: cynoGITR on 293F‐cynoGITR cells (Macaca fascicularis)
# T1 construct: also called 293F‐cGITR
# T1 chain: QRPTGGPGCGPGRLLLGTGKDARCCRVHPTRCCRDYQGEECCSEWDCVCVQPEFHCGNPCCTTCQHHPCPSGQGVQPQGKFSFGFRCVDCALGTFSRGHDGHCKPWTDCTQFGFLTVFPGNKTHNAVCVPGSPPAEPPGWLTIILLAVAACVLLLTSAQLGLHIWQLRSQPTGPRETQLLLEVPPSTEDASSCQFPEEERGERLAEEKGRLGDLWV
# T2: cynoGITR ECD hFc (Macaca fascicularis)
# T2 construct: cynomolgus GITR, extracellular domain, Gln20-Glu155, NCBI XP_005545180.1; also called cynoGITR protein; cGITR; source: FreeStyle 293F, transiently transfected, purified by protein A
# T2 chain: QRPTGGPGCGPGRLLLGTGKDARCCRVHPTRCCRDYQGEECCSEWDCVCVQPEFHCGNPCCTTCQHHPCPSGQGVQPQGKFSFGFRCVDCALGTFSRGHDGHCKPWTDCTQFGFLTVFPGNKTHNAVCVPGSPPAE
# Key:
# [1] = target: T3, human GITR on 293F‐hGITR cells (Homo sapiens (Human)., UniProt Q9Y5U5-1); assay: cell-based or functional assay
# T3 sequence (Q9Y5U5 26-241): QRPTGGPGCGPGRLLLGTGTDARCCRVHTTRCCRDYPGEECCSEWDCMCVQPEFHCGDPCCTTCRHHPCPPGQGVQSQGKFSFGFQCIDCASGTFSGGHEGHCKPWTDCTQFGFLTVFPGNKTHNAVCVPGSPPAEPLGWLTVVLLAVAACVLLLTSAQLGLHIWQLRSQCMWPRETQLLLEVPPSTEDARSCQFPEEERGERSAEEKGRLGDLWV
# hGITR ECD hFc [2] = target: T4, hGITR ECD hFc (Homo sapiens (Human)., UniProt Q9Y5U5, Thr45Ala); assay: SPR; Biacore T200; hGITR ECD hFc immobilised on a Series S CM5 chip; antibody 0, 3.125, 6.25, 12.5, 25 and 50 nM; association 180 s, dissociation 600 s; conditions: both partners purified
# T4 construct: human GITR (glucocorticoid-induced TNF receptor-related), extracellular domain, Gln26-Glu161 with Thr45Ala, UniProt Q9Y5U5.1; also called human GITR protein; source: FreeStyle 293F, transiently transfected, purified by protein A
# [3] = target: T3, human GITR on 293F‐hGITR cells; assay: flow cytometry on cells; 293F‐hGITR or 293F‐cynoGITR cells incubated with antibodies at 4 °C for 1 h, fluorescent anti-rat/human secondary antibody; EC50 of MFI curve; conditions: one partner purified
# [4] = target: T1, cynoGITR on 293F‐cynoGITR cells; assay: as above; conditions: one partner purified
# human OX40 ECD hFc = target: T5, human OX40 ECD hFc (Homo sapiens (Human)., UniProt P43489); assay: ELISA; indirect ELISA; antigen hFc fusion protein coated on 96-well plates (1 μg·mL^−1 overnight at 4 °C in Fig. 3B), antibody added, detected with anti-rat IgG/hIgG-peroxidase antibody; conditions: both partners purified
# T5 construct: human OX40, extracellular domain
# T5 sequence (P43489 29-214): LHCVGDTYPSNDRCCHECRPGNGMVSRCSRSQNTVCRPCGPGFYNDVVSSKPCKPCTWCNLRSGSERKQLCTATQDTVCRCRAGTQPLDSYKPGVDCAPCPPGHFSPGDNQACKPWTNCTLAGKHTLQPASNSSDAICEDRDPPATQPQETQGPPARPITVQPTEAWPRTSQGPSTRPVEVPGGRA
# 4‐1BB ECD hFc = target: T6, 4‐1BB ECD hFc (Homo sapiens (Human)., UniProt Q07011); assay: as above; conditions: both partners purified
# T6 construct: 4-1BB, extracellular domain; called a paralogue of human GITR; The legend's word 'human' stands before OX40 only; human is likely
# T6 sequence (Q07011 24-186): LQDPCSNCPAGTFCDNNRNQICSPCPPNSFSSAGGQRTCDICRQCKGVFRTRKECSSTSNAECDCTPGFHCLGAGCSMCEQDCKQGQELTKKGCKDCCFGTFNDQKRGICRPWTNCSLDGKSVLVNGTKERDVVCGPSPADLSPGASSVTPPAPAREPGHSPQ
# hGITR ECD hFc [5] = target: T4, hGITR ECD hFc; assay: as above; conditions: both partners purified
# cynoGITR ECD hFc [6] = target: T2, cynoGITR ECD hFc; assay: as above; conditions: both partners purified
# hGITR ECD hFc [7] = target: T4, hGITR ECD hFc; assay: as above; conditions: both partners purified; remark: listed apart in the source
# cynoGITR ECD hFc [8] = target: T2, cynoGITR ECD hFc; assay: as above; conditions: both partners purified
"NF‐ĸB luciferase reporter assay, Crosslinking, EC50 [1] [nM]","NF‐ĸB luciferase reporter assay, Crosslinking, Top ratio [1] [fold]","NF‐ĸB luciferase reporter assay, No crosslinking, EC50 [1] [nM]","NF‐ĸB luciferase reporter assay, No crosslinking, Top ratio [1] [fold]",Kd (hGITR ECD hFc [2]) [nM],EC50 [3] [nM],EC50 [4] [nM],binding result (human OX40 ECD hFc),binding result (4‐1BB ECD hFc),EC50 (hGITR ECD hFc [5]) [nM],EC50 (cynoGITR ECD hFc [6]) [nM],EC50 (hGITR ECD hFc [7]) [nM],EC50 (cynoGITR ECD hFc [8]) [nM],Binder
7.69,13,0.275,8,0.384,0.206,0.29,no binding,no binding,0.093,0.089,–,–,"hab019e2 (antibody, V domains shown, 3503‐hab019‐VH(EG + NLA); positions not given; as the VL of m12 (3503‐hab019‐Vk); Whole antibody, human IgG1 heavy chain constant region, human kappa light chain constant region; also called hab19e2; source: FreeStyle 293F, transiently co-transfected, purified from culture supernatant) VH: QVQLVESGGGVVQPGRSLRLSCAASGFTFSSYGMHWVRQAPGKGLEWVAVIWYAGSRKFYADSVEGRFTISRDNSKNTLYLQMNSLRAEDTAVYYCARGGSLEGGFFYYGMDVWGQGTTVTVSS VL: not shown"
6.78,12,0.262,7,0.537,0.164,0.268,no binding,no binding,0.101,0.111,–,–,"hab070e1 (antibody, V domains shown, as the VH of m14 (3503‐hab070‐VH); 3503‐hab070‐Vk(C2Y); the substitution is against the VL of m14 (Cys in FR3 of VL); position not given; Whole antibody, human IgG1 heavy chain constant region, human kappa light chain constant region; also called hab70e1; source: FreeStyle 293F, transiently co-transfected, purified from culture supernatant) VH: QVQLVESGGGVVQPGRSLRLSCAASGFTFSSYGMHWVRQAPGKGLEWVAVIWYETSNKFYVDSVKGRFTISRDNSKNTLYLQMNSLRAEDTAVYYCARYGASSGWYWYFDLWGRGTLVTVSS VL: DIQLTQSPSFLSASVGDRVTITCRASQGISSFLAWYQQKPGKAPKLLIYAASTLQSGVPSRFSGSGSGTEFTLTISSLQPEDFATYYCQQLNSYPFTFGQGTKLEIK"
8.86,14,0.787,11,0.135,0.184,0.235,–,–,0.088,0.09,0.0709,0.0637,"Tab9H6v3 (antibody, V domains shown, heavy chain variable region of clone 9H6v3 (AMGEN INC.); light chain variable region of clone 9H6v3 (AMGEN INC.)) VH: QVQLVESGGGVVQPGRSLRLSCVASGFTFSSYGMHWIRQAPGKGLEWVAVIWYEGSNKYYAESVKGRFTISRDNSKNTLYLQMNSLRAEDTAVYYCARGGRLGKDYYSGMDVWGQGTTVTVSS VL: DIQMTQSPSSLSASVGDRVTITCRASQGIRNDLGWYQQKPGKAPKRLIYATSSLQSGVPSRFSGSGSGTEFTLTISSLQPEDFATYYCLQHNTYPWTFGQGTKVEIK"
